Experimental data as given in US12258605B2, “Alkane oxidation by modified hydroxylases” (The California Institute of Technology, priority 2005, dated 2025).
Marks after values point to notes of the source that are not given here.

Legend:
Format in all cases: biochemical
[1] = Background NADPH oxidation rate in screen (cell lysate, no substrate); details: relative to 35-E11
Protocol: (§1) Libraries of mutants of 35-E11 were screened for phenotypes indicative of either increased product formation on small gaseous substrates slightly larger than methane. Additionally, they were screened for increased coupling of the consumption of NADPH reducing equivalents to product formation. Product formation was determined by measuring total amount of dimethyl ether hydroxylation while increased coupling was determined primarily by decreased background NADPH consumption rates (measured spectrophotometrically at 340 nm in the absence of substrate).
The relative dimethyl ether (DME) activity was measured, 1 hour after treatment with Purpald, as the average net and absorbance at 550 nm from 8 microtitre plate DME reactions of the mutant compared to 8 equivalent reactions of 35-E11. All values were normalized by measuring the P450 concentration in each well with CO binding. “Asteriks” indicate criteria used to select mutants from libraries for further characterization. The oxidation rate is measured as absorbance change at 340 nm over 1 minute upon the addition of NADPH to 8 microtitre plate wells containing P450-containing cell lysate and compared to 8 equivalent reactions of 35-E11. All values were normalized by measuring the P450 concentration in each well with CO binding. The total turnover number (TTN) was measured as the absorbance at 550 nm of methane reactions with each mutant after treatment with alcohol oxidase and […]

[2] = High-throughput dimethyl ether (DME) screen; details: relative to 35-E11; normalized to P450 concentration
Protocol: Cell lysates for high throughput screening were prepared as described previously (Peters et al., J. Am. Chem. Soc. 125:13442 (2003); incorporated by reference herein). High-throughput dimethyl ether (DME) screens were performed in 96 well plates as described previously. Improved mutants were selected based on an increased signal compared to 9-10A (for the saturation mutagenesis libraries) and 1-12G (for the recombination library). Reactions on octane and propane were analyzed by gas chromatography as described.
as §1
The relative dimethyl ether (DME) activity was measured, 1 hour after treatment with Purpald, as the average net and absorbance at 550 nm from 8 microtitre plate DME reactions of the mutant compared to 8 equivalent reactions of 35-E11. All values were normalized by measuring the P450 concentration in each well with CO binding. “Asteriks” indicate criteria used to select mutants from libraries for further characterization. The oxidation rate is measured as absorbance change at 340 nm over 1 minute upon the addition of NADPH to 8 microtitre plate wells containing P450-containing cell lysate and compared to 8 equivalent reactions of 35-E11. All values were normalized by measuring the P450 concentration in each well with CO binding. The total turnover number (TTN) was measured as the absorbance at 550 nm of methane reactions with each mutant after treatment with alcohol oxidase and
Screening libraries by spectroscopically monitoring NADPH consumption rates in the presence of the alkane often selects for mutants with NADPH oxidation rates highly uncoupled to product formation. This can be overcome through the use of surrogate substrates that mimic desired substrates, yet yield species when hydroxylated that are easily detected either directly or with the addition of a dye. For example, the screen for the high-throughput identification of mutant BM-3 enzymes with activity towards propane as described previously uses dimethyl ether (DME) as a propane surrogate substrate. Upon hydroxylation, it decomposes into methanol and dye-sensitive formaldehyde. In addition, hexyl methyl ether (HME) may be used as a surrogate for octane. It shares most of the physical properties of octane, including solubility in buffer, size, shape, and strength of its C—H bonds. When HME is hydroxylated at its methoxy carbon, it also produces an equivalent of formaldehyde which is visually detected at concentrations as low as 10 μM with the dye Purpald (see FIG. 25). Hexanal, the aldehyde product formed when the α-carbon of the hexyl group is hydroxylated, is practically unreactive towards Purpald at some concentrations used in the present screens. Formaldehyde is approximately 42 times more sensitive to Purpald than hexanal (see FIG. 26). This disproportionate response makes HME, in contrast to the symmetric ether DME, a regio-selective screen for terminal alkane hydroxylation.
High-throughput screening. Single colonies were picked and inoculated by a Qpix robot (Genetix, Beaverton, OR) into 1-mL, deep-well plates containing LB (Amp*) medium (400 μL). The plates were incubated at 30° C., 250 rpm, and 80% relative humidity. After 24 h, 50 μL from this pre-culture were used to inoculate a 2-mL, deep-well plates containing […] TB (Amp^+) medium per well. Cultures were grown at 37° C., 220 rpm, and 80% relative humidity. […]

[3] = Methane to methanol conversion (alcohol oxidase/Purpald); details: methane to methanol
Protocol: The 35-E11 variant was tested for the ability to convert methane to methanol using the method of Anthon and Barrett (Agric. Food Chem., 52:3749 (2004)). The method was optimized so that it could detect methanol concentrations in water as low as 10 μM.
The mutant BM-3 enzymes described below were purified using published procedures and used as catalysts in small reactions with methane. In glass head space vials containing magnetic stirring bars, BM-3 catalyst was added to 0.1 M potassium phosphate buffer (pH=8) saturated with methane. The vials were then crimped shut and charged to 20 psi with methane. To start the biotransformation, an NADPH regeneration system consisting of NADP+, isocitrate, and isocitric dehydrogenase was added through a syringe. The reaction was allowed to stir 12-15 hours. Methanol production was measured using a coupled enzyme assay. Aliquots of the reaction were transferred to 96-well microtitre plates and reacted with the enzyme alcohol oxidase for 5 minutes at room temperature. Alcohol oxidase converts the methanol produced by the BM-3 variants into formaldehyde which can be detected with the dye Purpald. To detect formaldehyde and quench the alcohol oxidase reaction, a solution of Purpald in 2 M NaOH was added and allowed to react for one hour. The purple color that Purpald forms in the presence of formaldehyde was quantified one hour later by spectrophotometrically reading the well at 550 nm and comparing the absorbance against similarly-treated solutions of BM-3, NADPH regeneration system, and methane-free buffer spiked with known concentrations of methanol. The results of these biotransformations are reported in Table 3 and sample spectra from the colorimetric assay are shown in FIG. 7.
Reactions for enzyme-catalyzed conversion of methane to methanol were carried out in 10 mL glass headspace vials. A 470 μL reaction mixture containing 5 μM purified BM-3 variant in 0.1 M potassium phosphate buffer (pH 8.0) was first added to the vial. The vial was immediately topped with a septum, pressurized with 30 psi of methane and shaken at 4° C. for 1 hour. […] For determination of total turnover, the reaction was allowed to proceed for 20 hours at room temperature.
The amount of methanol product formed during the 20 hr methane reaction was quantified colorimetrically with the use of alcohol oxidase and Purpald. 190 μL of the reaction mixture is transferred onto a single cell of a 96 well plate. 10 μL of 0.05 U/μL solution of alcohol oxidase (from Pichia pastoris, purchased from Sigma-Aldrich) was added to cell and allowed to incubate at room temperature for 5 minutes. During this time, the alcohol oxidase converts the methanol into formaldehyde. Purpald (168 mM in 2 M NAOH) was then added to form a purple product with the formaldehyde in solution. The purple color was read approximately 1 hour later at 550 nm using a Spectramax Plus microtiter plate reader. The concentration of methanol was determined based on the measure absorbance in comparison to a methanol calibration curve. The methanol calibration curve was generated with several standards. Each standard contained 100 μL of a methanol solution (10, 20, 40, 60, 100 μM) and 90 μL of the methane reaction mixture described above, without the methane pressurization.
The relative dimethyl ether (DME) activity was measured, 1 hour after treatment with Purpald, as the average net and absorbance at 550 nm from 8 microtitre plate DME reactions of the mutant compared to 8 equivalent reactions of 35-E11. All values were normalized by measuring the P450 concentration in each well with CO binding. “Asteriks” indicate criteria used to select mutants from libraries for further characterization. The oxidation rate is measured as absorbance change at 340 nm over 1 minute upon the addition of NADPH to 8 microtitre plate wells containing P450-containing cell lysate and compared to 8 equivalent reactions of 35-E11. […]

Molecule	Relative background NADPH oxidation rate [1]	Relative DME activity in screen [2]	Methane TTN [3]
35-E11-E464R: P450 BM-3 variant, SEQ ID NO:8; 35-E11 with E464R (protein, mutant P450 35-E11-E464R protein sequence, 35-E11 with E464R) TIKEMPQPKTFGELKNLPLLNTDKPVQALMKIADELGEIFKFEAPGCVTRYLSSQRLIKEACDESRFDKNLSQALKFFRDFSGDGLFTSWTHEINWKKAHNILLPSFSQQAMKGYHAMMVDIAVQLVQKWERLNADEHIEVSEDMTRLTLDTIGLCGFNYRFNSFYRDQPHPFIISMVRALDEVMNKLQRANPDDPAYDENKRQCQEDIKVMNDLVDKIIADRKARGEQSDDLLTQMLNGKDPETGEPLDDGNISYQIITFLIAGHETTSGLLSFALYFLVKNPHVLQKVVEEAARVLVDPVPSYKQVKQLKYVGMVLNEALRLWPTFPAFSLYAKEDTVLGGEYPLEKGDEVMVLIPQLHRDKTIWGDDVEEFRPERFENPSAIPQHAFKPFGNGQRACIGQQFALHEATLVLGMMLKHFDFEDHTNYELDIKETLTLKPEGFVVKAKSKKIPLGGIPSPSTRQSAKKVRKKAENAHNTPLLVLYGSNMGTAEGTARDLADIAMSKGFAPQVATLDSHAGNLPREGAVLIVTASYNGHPPDNAKQFVDWLDQASADEVKGVRYSVFGCGDKNWATTYQKVPAFIDETLAAKGAENIADRGEADASDDFEGTYEEWREHMWSDVAAYFNLDIENSEDNKSTLSLQFVDSAADMPLAKMHGAFSTNVVASKELQQPGSARSTRHLEIELPKEASYQEGDHLGVIPRNYEGTVNRVTARFGLDASQQIRLEAEEEKLAHLPLAKTVSVEELLQYVELQDPVTRTQLRAMAAKTVCPPHKVELEALLEKQAYKEQVLAKRLTMLELLEKYPACEMKFSEFIALLPSIRPRYYSISSSPRVDEKQASITVSVVSGEAWSGYGEYKGIASNYLAELQEGDTITCFISTPQSEFTLPKDPETPLIMVGPGTGVAPFRGFVQARKQLKEQGQSLGEAHLYFGCRSPHEDYLYQEELENAQSEGIITLHTAFSRMPNQPKTYVQHVMEQDGKKLIELLDQGAHFYICGDGSQMAPAVEATLMKSYADVHQVSEADARLWLQQLEEKGRYAKDVWAG	0.6*	0.9	12
35-E11-E464Y: P450 BM-3 variant, SEQ ID NO:9; 35-E11 with E464Y (protein, mutant P450 35-E11-E464Y protein sequence, 35-E11 with E464Y) TIKEMPQPKTFGELKNLPLLNTDKPVQALMKIADELGEIFKFEAPGCVTRYLSSQRLIKEACDESRFDKNLSQALKFFRDFSGDGLFTSWTHEINWKKAHNILLPSFSQQAMKGYHAMMVDIAVQLVQKWERLNADEHIEVSEDMTRLTLDTIGLCGFNYRFNSFYRDQPHPFIISMVRALDEVMNKLQRANPDDPAYDENKRQCQEDIKVMNDLVDKIIADRKARGEQSDDLLTQMLNGKDPETGEPLDDGNISYQIITFLIAGHETTSGLLSFALYFLVKNPHVLQKVVEEAARVLVDPVPSYKQVKQLKYVGMVLNEALRLWPTFPAFSLYAKEDTVLGGEYPLEKGDEVMVLIPQLHRDKTIWGDDVEEFRPERFENPSAIPQHAFKPFGNGQRACIGQQFALHEATLVLGMMLKHFDFEDHTNYELDIKETLTLKPEGFVVKAKSKKIPLGGIPSPSTYQSAKKVRKKAENAHNTPLLVLYGSNMGTAEGTARDLADIAMSKGFAPQVATLDSHAGNLPREGAVLIVTASYNGHPPDNAKQFVDWLDQASADEVKGVRYSVFGCGDKNWATTYQKVPAFIDETLAAKGAENIADRGEADASDDFEGTYEEWREHMWSDVAAYFNLDIENSEDNKSTLSLQFVDSAADMPLAKMHGAFSTNVVASKELQQPGSARSTRHLEIELPKEASYQEGDHLGVIPRNYEGTVNRVTARFGLDASQQIRLEAEEEKLAHLPLAKTVSVEELLQYVELQDPVTRTQLRAMAAKTVCPPHKVELEALLEKQAYKEQVLAKRLTMLELLEKYPACEMKFSEFIALLPSIRPRYYSISSSPRVDEKQASITVSVVSGEAWSGYGEYKGIASNYLAELQEGDTITCFISTPQSEFTLPKDPETPLIMVGPGTGVAPFRGFVQARKQLKEQGQSLGEAHLYFGCRSPHEDYLYQEELENAQSEGIITLHTAFSRMPNQPKTYVQHVMEQDGKKLIELLDQGAHFYICGDGSQMAPAVEATLMKSYADVHQVSEADARLWLQQLEEKGRYAKDVWAG	0.7*	0.8	13
